Positions count from the first letter of the chain named. In names and notes the source's numbering stands.

The values below come from publication PMC10954469, “Molecular and thermodynamic determinants of self-assembly and hetero-oligomerization in the enterobacterial thermo-osmo-regulatory protein H-NS” (Nucleic Acids Research, 2024).

T1: Cnu, co-repressor of the Hha family (E. coli, UniProt P64467 1-71)
T1 construct: Cnu, a member of the Hha family in E. coli; harbors a sole tryptophan (W67)
T1 sequence (looked up): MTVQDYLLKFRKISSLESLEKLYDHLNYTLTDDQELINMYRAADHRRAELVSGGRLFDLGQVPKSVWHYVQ

B1: H-NS (histone-like or heat-stable nucleoid structuring protein) (natural protein, E. coli (uropathogenic))
chain: MSEALKILNNIRTLRAQARECTLETLEEMLEKLEVVVNERREEESAAAAEVEERTRKLQQYREMLIADGIDPNELLNSLAAVKSGTKAKRAQRPAKYSYVDENGETKTWTGQGRTPAVIKKAMDEQGKSLDDFLIKQ
notes: H-NS from uropathogenic E. coli, whole protein as printed in the methods; Expressed as the fusion H-NS:intein:CBD and released by cleavage with beta-mercaptoethanol; also called WT H-NS; wild-type H-NS; source: E. coli BL21(DE3), pTXB1 vector, purified (chitin column, intein-mediated cleavage, Superdex 200 SEC)
B2: H-NS Y61E, phosphomimetic mutant (natural protein)
chain: B1 chain with Y61E
notes: H-NS from uropathogenic E. coli; also called Y61E mutant; source: E. coli BL21(DE3), pTXB1 vector, purified following identical protocols as H-NS
B3: H-NS (histone-like or heat-stable nucleoid structuring protein), wild type (natural protein, uropathogenic E. coli)
chain: B1 chain
notes: H-NS from uropathogenic E. coli, 137 residues as printed; Polydisperse in solution: monomers, dimers, tetramers and octamers; Expressed as H-NS:intein:CBD fusion; also called H-NS WT; wild-type H-NS; source: E. coli BL21(DE3), pTXB1 vector, purified (chitin column, intein cleavage, Superdex 200 SEC)
B4: Y61Em (Y61E/W109F H-NS) (natural protein)
chain: B1 chain with Y61E, W109F
notes: H-NS from uropathogenic E. coli; source: E. coli BL21(DE3), pTXB1 vector, purified following identical protocols as H-NS
B5: H-NSm (W109F H-NS), tryptophan null variant of H-NS (natural protein)
chain: B1 chain with W109F
notes: H-NS from uropathogenic E. coli; also called H-NS tryptophan variant; source: E. coli BL21(DE3), pTXB1 vector, purified following identical protocols as H-NS

Series [1] deals with the molecule itself. The series is described as follows: AUC + other: differential scanning calorimetry; parameters of the thermodynamic model that best capture the AUC and DSC observations; defined at the reference temperature TD 333 K; 150 mM ionic strength, pH 7; dimer to monomers. A general note: In DSC, transitions show as peaks or steps in heat flow.
Series [2] deals with the molecule itself. The series is described as follows: AUC + other: differential scanning calorimetry; parameters of the thermodynamic model that best capture the AUC and DSC observations; defined at the reference temperature TD 333 K; 300 mM ionic strength, pH 7; dimer to monomers.
Series [3] concerns the molecule itself. Kind of series: AUC + other: differential scanning calorimetry; thermodynamic model set semi-quantitatively to match AUC populations (20 °C) and DSC thermograms; constant predicted by the model for 13 °C; 300 mM ionic strength, pH 7; dimer to monomers.
Series [4] deals with the molecule itself. The series is described as follows: AUC + other: differential scanning calorimetry; thermodynamic model set semi-quantitatively to match AUC populations (20 °C) and DSC thermograms; constant predicted by the model for 25 °C; 300 mM ionic strength, pH 7; dimer to monomers.
Series [5] deals with the molecule itself. The series is described as follows: AUC + other: differential scanning calorimetry; thermodynamic model set semi-quantitatively to match AUC populations (20 °C) and DSC thermograms; constant predicted by the model for 37 °C; 300 mM ionic strength, pH 7; dimer to monomers.
Series [6] concerns the molecule itself. The series is described as follows: AUC + other: differential scanning calorimetry; parameters of the thermodynamic model that best capture the AUC and DSC observations; defined at the reference temperature TO 333 K; 150 mM ionic strength, pH 7; tetramer to dimers and octamer to tetramers (one constant KO for both steps).
Series [7] concerns the molecule itself. Kind of series: AUC + other: differential scanning calorimetry; parameters of the thermodynamic model that best capture the AUC and DSC observations; defined at the reference temperature TO 333 K; 300 mM ionic strength, pH 7; tetramer to dimers and octamer to tetramers (one constant KO for both steps).
Series [8] deals with the molecule itself. Kind of series: AUC + other: differential scanning calorimetry; thermodynamic model set semi-quantitatively to match AUC populations (20 °C) and DSC thermograms; constant predicted by the model for 13 °C; 150 mM ionic strength, pH 7; tetramer to dimers and octamer to tetramers (one constant KO for both steps).
Series [9] deals with the molecule itself. The series is described as follows: AUC + other: differential scanning calorimetry; thermodynamic model set semi-quantitatively to match AUC populations (20 °C) and DSC thermograms; constant predicted by the model for 13 °C; 300 mM ionic strength, pH 7; tetramer to dimers and octamer to tetramers (one constant KO for both steps).
Series [10] concerns the molecule itself. Kind of series: AUC + other: differential scanning calorimetry; thermodynamic model set semi-quantitatively to match AUC populations (20 °C) and DSC thermograms; constant predicted by the model for 25 °C; 300 mM ionic strength, pH 7; tetramer to dimers and octamer to tetramers (one constant KO for both steps).
Series [11] deals with the molecule itself. Kind of series: AUC + other: differential scanning calorimetry; thermodynamic model set semi-quantitatively to match AUC populations (20 °C) and DSC thermograms; constant predicted by the model for 37 °C; 300 mM ionic strength, pH 7; tetramer to dimers and octamer to tetramers (one constant KO for both steps).
Series [12] concerns the molecule itself. The series is described as follows: AUC + other: differential scanning calorimetry; thermodynamic model (octamer, tetramer, dimer, folded and unfolded monomer) whose parameters were set semi-quantitatively to match AUC populations (20 °C) and DSC thermograms; constant predicted by the model for 13 °C; 150 mM ionic strength, pH 7; dimer to monomers.
Series [13] concerns the molecule itself. Kind of series: AUC; sedimentation velocity, 20°C, 150 mM ionic strength, pH 7, 15-200 μM protein, c(s) analysis with SEDFIT.
Series [14] deals with the molecule itself. The series is described as follows: AUC + other: differential scanning calorimetry; thermodynamic model brought into semi-quantitative agreement with AUC populations and DSC curves; 150 mM ionic strength, pH 7; constant at 25°C; dimer to monomers.
Series [15] concerns the molecule itself. The series is described as follows: AUC + other: differential scanning calorimetry; thermodynamic model brought into semi-quantitative agreement with AUC populations and DSC curves; 150 mM ionic strength, pH 7; constant at 37°C; dimer to monomers.
Series [16] concerns the molecule itself. The series is described as follows: AUC + other: differential scanning calorimetry; thermodynamic model brought into semi-quantitative agreement with AUC populations and DSC curves; 150 mM ionic strength, pH 7; constant at 25°C; tetramer to dimers and octamer to tetramers (one constant KO for both).
Series [17] deals with the molecule itself. The series is described as follows: AUC + other: differential scanning calorimetry; thermodynamic model brought into semi-quantitative agreement with AUC populations and DSC curves; 150 mM ionic strength, pH 7; constant at 37°C; tetramer to dimers and octamer to tetramers (one constant KO for both).
In series [18] the target is T1, Cnu, co-repressor of the Hha family. Kind of series: other fluorescence titration; tryptophan (W67) emission of 2 μM Cnu, excitation 295 nm, with 30 nM to 50 μM tryptophan-free H-NS variant; intensity-averaged wavenumber; Hill equation, apparent (K1/2); 150 mM ionic strength, pH 7, 25°C. The note with it: both partners purified.
Series [19] deals with B3. Kind of series: fluorescence polarisation; steady-state tryptophan (W109) anisotropy of 2 μM wild-type H-NS with 30 nM to 50 μM H-NSm, 150 mM ionic strength, pH 7, 13, 25 and 37°C. The note with it: both partners purified. On the technique in general: Fluorescence polarisation rises when a labelled molecule tumbles more slowly, as on binding a larger partner.
Series [20] deals with T1, Cnu, co-repressor of the Hha family. Kind of series: other fluorescence titration; tryptophan (W67) emission of 2 μM Cnu, excitation 295 nm, with 30 nM to 50 μM tryptophan-free H-NS variant; intensity-averaged wavenumber; Hill equation, apparent (K1/2); 300 mM ionic strength, pH 7, 25°C. To be noted: both partners purified.

Consider B1, for which the Kd in [1] is 1000 µM; in [2] it was 100 µM; in series [3], 1.19 µM; in series [4] it was 4.22 µM; in [5], 13.6 µM; in series [6], 100 µM. Moreover, the Kd in [7] is 100 µM; in [8] it was 17 µM; in series [9], 9.39 µM; in series [10], 18.5 µM; in [11] it was 34.5 µM; in series [12], 0.0238 µM.
For the molecule B2, the stoichiometry N (as a rule, the number of molecules, sites or subunits per partner or assembly) in series [13] was determined as 2.
For the molecule B3, the Kd is about 0.5 µM in series [14], about 8 µM in [15], about 30 µM in series [16] and about 45 µM in [17].
For B4, the Kd in series [18] was 1.6 µM.
As to B5, in series [19], the binding result is listed as “binds”. For the same molecule, the Kd was 4 µM in series [18] and 12 µM in [20].
